The target of one assay is YFP-KYP (Arabidopsis) (UniProt Q8GZB6). The assay can be described thus: FRET or BRET; FRET acceptor photobleaching (FRET-AB) in nuclei of N. benthamiana epidermal cells; TrAP-CFP donor, YFP-KYP acceptor; 27-30 cells per experiment. On the technique in general: In BRET a luciferase serves as donor, and the signal depends on an acceptor being close.
Assay [1] concerns the target His-MBP-KYP (Arabidopsis) (UniProt Q8GZB6).

In the assay with YFP-KYP (Arabidopsis), CaLCuV TrAP-CFP (natural protein) showed an FRET-AB of 2.7.

On to His-GST-CaLCuV-TrAP (natural protein), for which the initial velocity of KYP transmethylation of histone 3 (in vitro HMTase reconstitution with 14C-SAM; His-MBP-TrAP pre-incubated with His-GST-KYP at molar ratios 0-10); IC50 as TrAP:KYP molar ratio (TrAP:KYP molar ratio) in assay [1] turned out to be 2.

TGMV TrAP-CFP (natural protein) displayed an FRET-AB with YFP-KYP (Arabidopsis) of 3.82.

As for His-GST-TGMV-TrAP (natural protein), the initial velocity of KYP transmethylation of histone 3 (in vitro HMTase reconstitution with 14C-SAM; His-MBP-TrAP pre-incubated with His-GST-KYP at molar ratios 0-10); IC50 as TrAP:KYP molar ratio (TrAP:KYP molar ratio) in assay [1] is 2.

These data come from paper PMC4606454.
